These results are taken from patent publication CN117545770A (HOFFMANN LA ROCHE, dated 2024).

The target in assay [1] is T1, 重组单链HLA-G单体/人HLA-Gβ2M MHC I类复合物 (SEQ ID NO:39) (human).
T1 construct: also called wt-HLA-G复合物; wt-HLA-G抗原
The assay is described as follows: SPR Biacore T200, 25 °C, multi-cycle kinetics; antibody captured by anti-hFc on CM3 chip, HLA-G complex as analyte; 1:1 Langmuir. In general terms: Surface plasmon resonance follows binding to a sensor surface in real time, without labels.

Assay [2] addresses T1, 重组单链HLA-G单体/人HLA-Gβ2M MHC I类复合物 (SEQ ID …). The assay is described as follows: SPR multi-cycle kinetics.

B1: HLA-G-0090 (antibody, IgG1, V domains shown)
VH: QVQLQQSGPGLLKPSQTLSLTCAISGDSVSSNRAAWNWIRQSPSRGLEWLGRTYYRSKWYNDYAVSVQGRITLIPDTSKNQFSLRLNSVTPEDTAVYYCASVRAVAPFDYWGQGVLVTVSS
VL: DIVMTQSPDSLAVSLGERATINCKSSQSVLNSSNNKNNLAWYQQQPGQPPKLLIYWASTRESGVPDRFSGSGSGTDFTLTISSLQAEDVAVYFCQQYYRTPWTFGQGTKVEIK
modifications: N-glycosylation at the NSS motif of CDR-L1 (LC positions 31-33; Fab glycosylation found by mass spectrometry); N-glycosylation in CDR-L1 (NSS motif, LC 31-33) is on the light chain, not on this chain
notes: also called 亲代抗体HLA-G-0090
In turn, B1 displayed a t1/2 in assay [1] of 6.5 min.

B2: HLA-G-0090-VL-S33P (antibody, IgG1, V domains shown)
VH: QVQLQQSGPGLLKPSQTLSLTCAISGDSVSSNRAAWNWIRQSPSRGLEWLGRTYYRSKWYNDYAVSVQGRITLIPDTSKNQFSLRLNSVTPEDTAVYYCASVRAVAPFDYWGQGVLVTVSS
VL: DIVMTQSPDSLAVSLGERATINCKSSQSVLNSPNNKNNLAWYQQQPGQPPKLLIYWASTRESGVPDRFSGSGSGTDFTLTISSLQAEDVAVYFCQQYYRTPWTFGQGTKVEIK
notes: IgG1 format, HEK293F; also called HLA-G-0090-S33P
On to B2, for which the “fold decrease of binding affinity against HLA-G-0090” value in assay [2] is 2 fold. This molecule gave a t1/2 in assay [1] of 3.13 min.

B3: HLA-G-0090-VL-S33D (antibody, IgG1, V domains shown)
VH: QVQLQQSGPGLLKPSQTLSLTCAISGDSVSSNRAAWNWIRQSPSRGLEWLGRTYYRSKWYNDYAVSVQGRITLIPDTSKNQFSLRLNSVTPEDTAVYYCASVRAVAPFDYWGQGVLVTVSS
VL: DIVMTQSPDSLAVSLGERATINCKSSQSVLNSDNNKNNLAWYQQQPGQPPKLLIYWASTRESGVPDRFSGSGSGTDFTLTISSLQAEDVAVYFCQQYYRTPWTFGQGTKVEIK
notes: IgG1 format, HEK293F; also called HLA-G-0090--S33D
Turning to B3, the “fold decrease of binding affinity against HLA-G-0090” value in assay [2] was 5 fold. Besides, in assay [1], the t1/2 turned out to be 1.73 min.

B4: HLA-G-0090-VL-S33A (antibody, V domains shown)
VH: QVQLQQSGPGLLKPSQTLSLTCAISGDSVSSNRAAWNWIRQSPSRGLEWLGRTYYRSKWYNDYAVSVQGRITLIPDTSKNQFSLRLNSVTPEDTAVYYCASVRAVAPFDYWGQGVLVTVSS
VL: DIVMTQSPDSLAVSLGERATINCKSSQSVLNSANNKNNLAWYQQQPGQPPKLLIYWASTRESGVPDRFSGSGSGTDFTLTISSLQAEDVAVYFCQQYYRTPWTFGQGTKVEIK
notes: also called HLA-G-0090-S33A
As for B4, in assay [1], the t1/2 is 7.76 min.

B5: HLA-G-0090-VL-S32P (antibody, V domains shown)
VH: QVQLQQSGPGLLKPSQTLSLTCAISGDSVSSNRAAWNWIRQSPSRGLEWLGRTYYRSKWYNDYAVSVQGRITLIPDTSKNQFSLRLNSVTPEDTAVYYCASVRAVAPFDYWGQGVLVTVSS
VL: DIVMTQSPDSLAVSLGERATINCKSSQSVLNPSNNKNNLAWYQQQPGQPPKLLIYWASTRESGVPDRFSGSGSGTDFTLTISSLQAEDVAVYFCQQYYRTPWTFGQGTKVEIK
notes: also called HLA-G-0090-S32P
B5 showed a t1/2 in assay [1] of 7.34 min.
